Experiment: yeast display, Sf9 membrane polyspecificity reagent, FACS + sequencing; frameworks hold sequencing errors
Outline: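 Polyreactivity labels are assigned by the sorting gate from which each nanobody was recovered. The gates were low and high (top ~1%), set on anti-HA fluorescence for expression and streptavidin fluorescence for reagent binding. Before sorting, galactose-induced (36–48 hours) yeast display cells were stained for 1 hour at 4 °C with 10% biotinylated, detergent-solubilized Sf9 membrane reagent.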

Sequence | polyreactivity (PSR sort gate)
QVQLVESGGGLVHAGGSLRLSCAASGSTFLPNAMVWYRQSHGKERELVAAISYRGGGTFYADSVKGRFTISRDNAKNTVYLQMNSLKPEDTAVYYCAADWSWFDNFDYWGQGTQVTVSS | low polyreactivity
QVQLVESGGGLVHAGGSLRLSCAASGSTFYYNAMGWYRQAPGKERELVAAITKSGDDTYYADSEKGRFTISRDNATNTVYLQMNSLKPEDTAVSYCAAYLSWYDYWGQGTQVTVSS | low polyreactivity
QVQLVESGGGLVHAGGSLRLSCAASGSTFYYYAMGWYRQAPGKERELVAAIRGDSTYYADSVKGRFTISRDNAKYTVYLQMYSLKTEDTAFYYCAADWYDTGFWWTYPYDYWGQGTQVTVSS | low polyreactivity
QVQLVESGGGLVHAGGSLRLSCAASGSTVSYYAMGWYRQAPGKERELVAAISTRGSSTYYADSVKGRFTISRDNAKNTVYFQMNSLKPEDTAVYYCAVDQYKYDWFYDYYGYTYGYWGQGTQVTVSS | high polyreactivity
QVQLVESGGGLVHAGGSLRLSCAASGYTFRYYAKGWYRQAPGKERELVAAINSGDITNYADSVKGRFTITRDNAKTTVYLQMNSLKPEDTAVYFCARSTFSLYDYWGQGTQVTVSS | low polyreactivity
QVQLVESGGGLVHAGGSLRLSCAASGYTFTYYVMGWYRQAPGKEREFVAGIRNGGGRMYYADSVKGRFTISRDNAKNTVYFQMNSLKPEDTAVYYCNAGYGTYYSGVYWRGEMDYWGQGTQVTVSS | high polyreactivity
QVQLVESGGGLVHAGGSLRLSCAASRRNFTRNAMGWYRQAPGKERELVAAIRRGGRTNYADSVKGRFTISRDNAKNTVYLQMNSLKPEETAVYYCNKAGWLKWAPRQYYYWGQGTQVTVSS | high polyreactivity
QVQLVESGGGLVHAGGSLRLSCYATGIILDRYTMGWYRQAPATERELVAAISRSGGITYYADSVKGRFTISRDNAKNTVYLQMNSLKQEDTAVYYCAAKYFDHRQTAYEYWGQGTHVTVSS | high polyreactivity
QVQLVESGGGLVHAGGSLRLSFAASGRTFTLNAMGWYRQAPGKEREFVAAISNSGVRTYYADSVKGRFTISRDNAKNTVYLQMNSLTPEDTAVYYCDGTYQVGDSIDDYWGQGTQVTVSS | low polyreactivity
QVQLVESGGGLVHAGGSLRVSCAASGSISDSYAMGWYREAPGKERELVAAITSGDSTYYADSVKGRFTISLDNAKNTVYLQMNSVKPEDTAVYYSAKRVSRVRGYGFTDWSEYDYWGQGTQVTVSS | low polyreactivity
QVQLVESGGGLVHAGGSLSLSCAASGRTFTSNAMGWYRQAPGKERELVATINGGVSTYYADSVKGRFTISRDNAKNTVYLQMNSLKPEDTAVYYCARDAYDADPSLWYYTYDYWGQGTQVTVSS | low polyreactivity
QVQLVESGGGLVHAGGSLSLSCAASGSTLRAYTMGWYRQSPGKERELVATITRRGGTTYYADSVKGRFTISRDNAKNTVYLQMNSLKPEDTAVYYCAAKWYSTHRYDYWGQGTQVTVSS | high polyreactivity
QVQLVESGGGLVHARGSLRLSCAASGCTFVRNAMGWYRPAPGKERELGAAITSRGGSTYYADSVKGRFTISRDNAKNTVYLQMNSLKPEDTAVYYCAARFGVKRGQYDFWGQGTQVTVSS | high polyreactivity
QVQLVESGGGLVHEGRSLRLSCAASGSKYSYDAMGWYRQAPGTERELVPTISWRGRTYYADSVKGRFTISRDNAKNTVYLKMISLKPEDTAVYYCNTKSLYGRSRGYPYDYWGQGTQVTVSS | high polyreactivity
QVQLVESGGGLVHSGRSLRLSCAASGSISCHYAMGWYRTAHGKERDLLAAIDSSGGIKYYADSVKGRFTISRDNSKNTVYLQMNSLKPEDTAVYYCAAVFLLFGFEWSYDYWGQGTQVTVSS | low polyreactivity
QVQLVESGGGLVKAGCSLRLSCADSGFIFSSYAMGWYRQAPGIERELVAAITRSGGITYYADSLKGRFTISRDNAKITVYLQMNSLKPEDTAVYYCAARWRYYRGYSRQRPYEFDYWGQGTQVTVSA | high polyreactivity
QVQLVESGGGLVKAGGSLRISCAASGSIFTPYTMGWYRQAPGKERELVAAISSGDSTYYADSVKGRFTISRDNAKKTVYLQMNSLKPEDTAVYYCAADYRYDYDYWGQGTQVTVSS | low polyreactivity
QVQLVESGGGLVKAGGSLRLICAASGSTFGGNDKGWYRHAPGKERELVDAISSGTSTNYADSVKGRFTISRDNAMNTVYLQMNSLKPEDTAVYYCNAGFWYRRTYDYWGQGTQVTVSS | low polyreactivity
QVQLVESGGGLVKAGGSLRLSCAASGFIFNGYAMGWYRQAPGKESELVAAINSGGITHYADSVKGRFTISRDNAKNTVYLQMNSLKPEDTAVYYCAAVRTGYYRQYDYWGQGTQVTVSS | high polyreactivity
QVQLVESGGGLVKAGGSLRLSCAASGFIFRYYAMGWYRQAPGKERELVAAITSTGRTYYADSVKGRFTISRDNAKNTVYLQMNSLKPEDTAVYYCAKRSYPWGQGTQVTVSS | low polyreactivity
QVQLVESGGGLVKAGGSLRLSCAASGFIFVYYAMGWYRQAPGKERELVARISWRGGRTYYADSVKGRFTISRDNAKNTVYLQMNSLKPEDTAVYYCNADFWNSHVWYDYWGQGTQVTVSS | high polyreactivity

Sequence | polyreactivity (PSR sort gate)
QVQLVESGGGLVKAGGSLRLSCAASGFTFYLNAMGWSRQAPGKERELVAGISWRGGRTYYADSVKGRFTISRDNAKITVYVQLNSLKPEDTAVYYCAAVTYSFQKTDYYWGQGTQVTVSA | high polyreactivity
QVQLVESGGGLVKAGGSLRLSCAASGINFYRYAMGWYRQAPGKERELVAAITWSGVSTSYADSVKGRFTISRDNAKKTVYLQMNSLKPEDTAVYYCNTDPGTLYGDMDSWGQGTQVTVSS | low polyreactivity
QVQLVESGGGLVKAGGSLRLSCAASGITFSYYTMGWYRQAPGKEREFVATISQSSGSTYYADSVKGRFTISRDNAKNTVYLQMNSLKPEDTAVYYCNARRDYEWESWNVDDDYWGQGTQVTVSS | high polyreactivity
QVQLVESGGGLVKAGGSLRLSCAASGLISYPYSMGWYRQSPWKERELVAAITSRGTSTYYADSVKGRFTISRDNAKYTVYLHMNSLKPEDTAVYYCNAVVWRSRVDYYYWGQGTQVTVSS | high polyreactivity
QVQLVESGGGLVKAGGSLRLSCAASGNTFGRNVMGWYRPAPGKERELVAAINRGGSTTYADSVKGRFTISRDNAKNTVYLQMNSLKPEDTAVYYCNAEIRGQSYRFDYWGQGTQVTVSS | high polyreactivity
QVQLVESGGGLVKAGGSLRLSCAASGRIFYGYAMGWYRQAPGKERELVAAITRSGTSTYYADSVKGRFTISRDNAKNTVYLQMHSLKPEDTAVYYCAAVERSLRSPYGDYGYWGHGTQVTVSS | high polyreactivity
QVQLVESGGGLVKAGGSLRLSCAASGRIFYTNDMGWYSQAPGKERELVATISSTGSTNYADSVKGRFTISRDNAKNTVYLEMNSLKPEDTAVYYCAADRSYFLRCIIYDYWGQGTQVTVSS | low polyreactivity
QVQLVESGGGLVKAGGSLRLSCAASGRTFLRNAMGWYRQAPGKERELVATITRGGSTYYADSVKGRFTISRDNAKNSVYLQMNSLKPEDTAVYYCAKDITGGFRRPDYGYWGQGTQVTVSS | low polyreactivity
QVQLVESGGGLVKAGGSLRLSCAASGSIFGGYAMGCYRQAPGKERELVAAISYRGASTYYADSVKWRFTISRDNAKNTVYLQMNSLKPEDTAVYYCAVAARTRARVLYGYDYWGQGTQVTVSS | low polyreactivity
QVQLVESGGGLVKAGGSLRLSCAASGSNFNPYAMGWYRQEPGKQRELVAAITGSGRSTYNSDSVKGRFTISRDNAKNTVYLEMNSLKPEDTAVYYCNRARILVWSKYGYWGQGTQVTVSS | high polyreactivity
QVQLVESGGGLVKAGGSLRLSCAASGSSFSSYAMGWYREAPGKEWELVAAISGGGNTYYADSVKGRFTISSDNAKNTVYLQMNSLKPEDTAVYYCNKSRLEPEYGYWGQGTQVTVSS | low polyreactivity
QVQLVESGGGLVKAGGSLRLSCAASGSTFDWYAMGWYRQAPGKERELVAAITWRGDSTNYADSVKGRFTISRDNAKNTVYLQMNSLKPEDTAVYYCATGKTYRDDYWGQGTQVTVSS | high polyreactivity
QVQLVESGGGLVKAGGSLRLSCAASGSTFPYYAMGWYRQAPGTEREFVAAISSSGGSTYYADSVKGRFTISRDNAKNTVYLQMNSLKPEDTAVYYFAAQGARRNYYRYGTYTNRRYDYWGQGTQVTVSS | high polyreactivity
QVQLVESGGGLVKAGGSLRLSCAASGSTFRRYAMGWYRLAPGKERELVAAITIGGSTYYADSVKGRFTISRDNAKNTVKLKMNSLKPEDTAVYSCNAGKTYLGDYWGQGTQVTVSS | high polyreactivity
QVQLVESGGGLVKAGGSLRLSCAASGSTFYAYAMGWSRQAPGKERELVAAISSSGGSTYYADSVKGRFTISRDNAKNTVYLQMNSLKPEDTAVYYCAAYDSVQIYWILGFDYWGQGSQVTVSS | low polyreactivity
QVQLVESGGGLVKAGGSLRLSCAASGYTYPLYAMGWYRQAPGKEMELVADINIGGASTYYADSVKGRFTISRDNAKNTVYLQMNSLKPEDTAVYDCAKEYYDGYFPTFDYDYWGQGTQVTVSS | low polyreactivity
QVQLVESGGGLVKAGGSLRLSCAATGRIFEYNTMGWYRQAPGKERELVAAITGGTGSTYYADSVKGRFTISRDNAKNTVYLKMNSLKPEDTAVYYCAADYTSPAFYSSFDYWGQGTQVTVSS | low polyreactivity
QVQLVESGGGLVKAGGSLRLSCADSGSIFWYYTMGRYRQAPGKEREFVAAISWSGGGSTYYADSVKGRFTISRENAKYTVYLQMNSLKPEDTAVYYCNGDWTSYGFVTRLDYWGHGTQVTVSS | low polyreactivity
QVQLVESGGGLVKAGGSLRLSCAPSGSTFKSYSMGWYRQAPGIECELVAAITSGGRTYYADSVKGRFTISRDNAKNTVYLQMNSLKPEDTAVYYCAALRVQQVKSYYYWGQGTQVTVSS | high polyreactivity
QVQLVESGGGLVKAGGSLRLSCASSGSTFVGNAMGWYRQAPGKERELVAAISVNDGTTYYADSVKGRFTISRDNAKNTVYLQMNSLKPEDTAVDYCNVKRYGCRSDYWGQGTQVTVSS | high polyreactivity

— the nanobody polyreactivity screen of Harvey et al. (2022)
